In the supplement of paper PMC9170038:

System: MS2 coat protein
Assay: apparent KD of MS2 coat protein; designed switch direction (-1 OFF switch, 1 ON switch): -1; higher = weaker reporter binding
Method in brief: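 Designed RNA switches sharing common flanks were transcribed on Illumina chips by stalled E. coli RNA polymerase. They were titrated with SNAP-549-labelled MS2 coat protein, from 0.7 or 1.5 nM doubling to 3 µM, in Tris-HCl pH 7.5 buffer with KCl, MgCl2, BSA, DTT, tRNA and Tween-20. Titrations ran without input, with 200 uM small-molecule ligand, or with an oligonucleotide input. The apparent KD of each design is the median over its clusters, after curve-fitting of normalised cluster fluorescence.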

[1] = Eterna round: R95, input ligand: FMN 200 uM
[2] = Eterna round: R95, input ligand: microRNA oligo, concentration not stated
[3] = Eterna round: R95, input ligand: none
[4] = input ligand: microRNA oligo, concentration not stated

Sequence | apparent KD of MS2 coat protein (input ligand: FMN 200 uM) [nM] | apparent KD of MS2 coat protein (input ligand: none) [nM] | apparent KD of MS2 coat protein [1] [nM] | apparent KD of MS2 coat protein [2] [nM] | apparent KD of MS2 coat protein [3] [nM] | apparent KD of MS2 coat protein [4] [nM]
GUUAUGUAAGGAUAUAUGAGUCACGGUGAUACACCGUGAAGAUAGAAGGUACAUGAGGAUCACCCAUGUAAGGC [Mod of Anonveat 10 - Jieux - Exclusion 4] (Eterna round: R97, puzzle: Exclusion 4) | 32.2 | 25.4 | – | – | – | –
GAAAAGGUAGGAUAUACGAAAAAAGAGGGUAGAAAAAAAACACAUGAGGAUCACCCAUGUAGAAGGACCAAAAG [salish99_ex2_r3_025] (puzzle: Exclusion 2) | – | – | 60.2 | 32.1 | 24.9 | –
CUUUAGUGAGGAUAUUAGUAGUAAUACAAUAGUAUUACUACUGAGAAGGCACAUGAGGAUCACCCAUGUUCCUC [Mat - Exclusion 4 - Mod of Omei - D79] (Eterna round: R96, puzzle: Exclusion 4) | 303 | 28.5 | – | – | – | 25
UUAUUAUGUGUAGGAUAUGCAUAUUAUUAUUAUGCAGAAGGACAUGAGGAUCACCCAUGUAUAUUAUUAUUAUAUAUUAUAUAU [Title] (Eterna round: R96, puzzle: Exclusion NG 1) | – | – | – | – | – | 25.1
AUCAGCUCGUGAGGAUAUACAUGCGUGCUUCGGCACGAAUUUAAGAUCACAUGAGGAUCACCCAUGUAGAAGGUACGAGCUGAU [ENG2/3-C3] (Eterna round: R96, puzzle: Exclusion NG 2) | 498 | 275 | – | – | – | 287
UAUGUGUCAGGAUAUUAAUUAUAACAGAAUUUAACAAUGAUUAAGAAGGGACAUGAGGAUCACCCAUGUUCAUC [JR_Ex4_Sub024] (Eterna round: R97, puzzle: Exclusion 4) | 22.7 | 20.4 | – | – | – | –
GGUCUGCGAGGAUAUACAUGAGGAUCACCCAUGUGAGAGAUACUAGUGAGGUCGAUUGGUAGAAGGCGCGGACG [JL-ex3-2.03 salish99 mod] (puzzle: Exclusion 3) | – | – | 13.1 | 124 | 115 | –
AAAUCGGUAGAGGAUAUUGUACAGGAAACGGUGCGAGAAGGUUACACAUGAGGAUCACCCAUGUUAAAUAGCGA [EX6 #54] (Eterna round: R97, puzzle: Exclusion 6) | 17.9 | 18.4 | – | – | – | –
AGCCUACAUGAGGAUCACCCAUGUCAGGAUAUCUCGCGACAUGUCAAGUUCACGUUGCAGAGAAGGGACUCGGG [Ononxe] (puzzle: Exclusion 1) | – | – | – | 47.8 | – | –
AGAUCCUGAGUCAGGAUAUAGAGACGGUAGUCGGGCUAGAAGGGACAUGAGGAUCACCCAUGUGGGUUCUUGCC [Rilalera] (puzzle: Brourd's mod of Exclusion 4) | – | – | – | 10.1 | – | –
AACUGUGAGGCAGGAUAUGAAGCAUGGGCCGCGUGAUAAUACAUGAGGAUCACCCAUGUAGGGAUUCAGAAGGGCCCAGAGCAC [Atusveer] (Eterna round: R96, puzzle: Exclusion NG 2) | 20.4 | 18.2 | – | – | – | 11.5
GCACGGAUGGUAGGAUAUCAGUGCGAUUAGCUCUGAGAAGGACCACAUGAGGAUCACCCAUGUACCUCAAUUAUCCUUCCGUGC [Eli exng1 - 022] (Eterna round: R96, puzzle: Exclusion NG 1) | 13.8 | 17.7 | – | – | – | 11.3
CAUGAUCUUCGGAUCAUGUACAUGAGGAUCACCCAUGUGACGAGUUACAUGUUUUACAAGCUUUUUGCUCGUCUUAU [Sensor v3 - Turn-off variant 1 - 14] (puzzle: Sensor v3, turn-off variant 1) | – | – | 40.3 | 99.4 | 47.4 | –
GUAAAGGUAGGAUAUACGAAGAAAAAGGGUAGAAGAAAAACACAUGAGGAUCACCCAUGUAGAAGGACCAAAUG [Mat - Exclusion 2 - Mod of my Tesla design - D3] (puzzle: Exclusion 2) | – | – | 77.6 | 28.6 | 34 | –
CUUUCGUGAGGAUAUGUGGCUUCGAUCGUGCGAUCGAGGCUACAGAAGGCACAUGAGGAUCACCCAUGUUCCUC [salish99_ex4_r4_221] (Eterna round: R97, puzzle: Exclusion 4) | 427 | 45.6 | – | – | – | –
AUAAUGUGAGGAUAUCAGUCGUACAGCGAUAGCUGUACGACUGAGAAGGCACAUGAGGAUCACCCAUGUGGUCA [E4/5-A4] (Eterna round: R97, puzzle: Exclusion 4) | 162 | 562 | – | – | – | –
UUCUUUAUACGAGGAUAUCAUACAUGAGGAUCACCCAUGUAACUGGGUCUAUUUUUAUAUAAUAUUGAGAAGGCGUUUUGCUAU [JR_ExcNG2_Sub071] (Eterna round: R96, puzzle: Exclusion NG 2) | 52.6 | 36.8 | – | – | – | 31.1

Sequence | apparent KD of MS2 coat protein (input ligand: FMN 200 uM) [nM] | apparent KD of MS2 coat protein (input ligand: none) [nM] | apparent KD of MS2 coat protein [1] [nM] | apparent KD of MS2 coat protein [2] [nM] | apparent KD of MS2 coat protein [3] [nM] | apparent KD of MS2 coat protein [4] [nM]
GAUUAUGCGAGCUUUAGGGACAUGAGGAUCACCCAUGUUCGUCUUAUUGGUCUGAAUGCACUGACAUACCUAAAUCU [JMF 76] (puzzle: Sensor v3, turn-off variant 1) | – | – | 18.7 | 24.2 | 17.5 | –
GGUCUGCGAGGAUAUACAUGAGGAUCACCCAUGUGCGAGAUACUAGUGAGGUCGGUUGGUAGAAGGCGCGGACG [JL-ex3-2.07 salish99 mod] (puzzle: Exclusion 3) | – | – | 58.8 | 37.1 | 55.6 | –
UGUUUACAUGAGGAUCACCCAUGUCAGGAUAUGAUCGAUAUAUGGAAACAUAUAUCGAUCAGAAGGGACUAGUG [Jieuxxlusion 2 - Jieux - Exclusion 1] (Eterna round: R97, puzzle: Exclusion 1) | 88.2 | 82.6 | – | – | – | –
UUUUUGUCAGGAUAUGAUUAGAUCUACUUCGGUAGAUCUAAUCAGAAGGGACAUGAGGAUCACCCAUGUAGUUU [Mod of Brourd - Jieux - Exclusion 4] (Eterna round: R97, puzzle: Exclusion 4) | 311 | 55.8 | – | – | – | –
AGUGCUGACACGUUGGUGUUAGUACCAUAAGCUUGUGAUACAUGAGGAUCACCCAUGUCCUCAUAAGCUCGUCUUAU [salish99_TOv2_r2_097] (puzzle: Sensor v3, turn-off variant 2) | – | – | 28.6 | 669 | 26.8 | –
CCUCAGUCACAGGAUAUGCUCAUCUAAUGAUGAGCAGAAGGGUGAACAUGAGGAUCACCCAUGUUUACCAGGGU [Omei Ex6 E5] (Eterna round: R97, puzzle: Exclusion 6) | 36 | 161 | – | – | – | –
CCAUGGGAGCGAGGAUAUAGCCCAUGGGAAGAGCUAGAAGGCGCUGACAUGAGGAUCACCCAUGUGUUCAUGAGGAGGUGGACA (Eterna round: R96, puzzle: Exclusion NG 1) | 292 | 173 | – | – | – | 128
ACUCACGCAGGAUAUACAUGAGGAUCACCCAUGUUCAAAGGGCGCGGGAACAUCGUCUGUAGAAGGGCGAACAU [jl-ex3-4.62 ViennaUCT mod] (Eterna round: R97, puzzle: Exclusion 3) | 40.4 | 29 | – | – | – | –
GUAACAACUAGAGGAUAUCAGCACGUGUAGUGCUGAGAAGGCUAGAGUUACAUGAGGAUCACCCAUGUCUAGAGAUCAUUAAUU [ENG1/13-A3] (Eterna round: R96, puzzle: Exclusion NG 1) | 142 | 69.3 | – | – | – | 52.9
GUGGGACAUGAGGAUCACCCAUGUCAGGAUAUUUGGGCGAGAUUCGAUCUCGUUAGCCGGAGAAGGGACGUAUG [Eternabot (L2) Solution 47] (Eterna round: R97, puzzle: Exclusion 1) | 34.7 | 25 | – | – | – | –
CAGUACUGAGGAUAUACAUGAGGAUCACCCAUGUGUGUGAGAUUUGGAUGAAAGUUAUGUAGAAGGCGGUGCUG [JR_Ex3_Sub037] (Eterna round: R97, puzzle: Exclusion 3) | 68.4 | 73.8 | – | – | – | –
CGGGCCGGCCUUCCGGCCGGCCCGACAUGAGGAUCACCCAUGUAGGAUAUCCCGGCUGCCGGCCGGGAGAAGGACAUGCGCCCG [-45.9, -45.9 kcal, 17% A] (Eterna round: R96, puzzle: Exclusion NG 3) | 104 | 49.3 | – | – | – | 65.3
GCUCGUGGGCAAGGAUAUCCUACGCUGUUCUGGUUCGUGUCUGUCACAUGAGGAUCACCCAUGUGGGAGAAGGUGCAUUUGGGU [Design 56] (Eterna round: R96, puzzle: Exclusion NG 2) | 18.2 | 20.6 | – | – | – | 15.9
GCGAAAGCAAGCAAGUGAAACAUGAGGAUCACCCAUGUCCUCAUUUGCUCGUCUUGUAAGCUAUGCGAAAGCAUAGC [Sensor 3, v1 - 5] (puzzle: Sensor v3, turn-off variant 1) | – | – | 12.1 | 53.3 | 11.9 | –
GGCGACCUAGGAUAUACAUGAGGAUCACCCAUGUUUAUCUAUUAGAUGAAGACGGGUUGUAGAAGGAGGAUAUU [JL Geriin mod] (Eterna round: R96, puzzle: Exclusion 3) | 19.5 | 20.2 | – | – | – | 14.6
ACGAGGAUUACAGGAUAUGAAGCUAAAACGGCGUUAGAAGGGUAUACAGAGUUACAUGAGGAUCACCCAUGUUGUGAUUUCGAA [AK ExNG1-V2-4.1] (Eterna round: R96, puzzle: Exclusion NG 1) | 158 | 134 | – | – | – | 115
